According to patent publication US20260275311, “CRISPR NUCLEASE POLYPEPTIDES AND GENE EDITING SYSTEMS COMPRISING SUCH” (ARBOR BIOTECHNOLOGIES, INC., published 2026):

What was measured:
Test in all cases: cell_activity; PAM NGG; HEK293T
Conditions in all cases: tags: N- and C-terminal NLS
Nuclease K D582R/G42R = target: T1, Nuclease K D582R/G42R (D582R,G42R)
T1 chain: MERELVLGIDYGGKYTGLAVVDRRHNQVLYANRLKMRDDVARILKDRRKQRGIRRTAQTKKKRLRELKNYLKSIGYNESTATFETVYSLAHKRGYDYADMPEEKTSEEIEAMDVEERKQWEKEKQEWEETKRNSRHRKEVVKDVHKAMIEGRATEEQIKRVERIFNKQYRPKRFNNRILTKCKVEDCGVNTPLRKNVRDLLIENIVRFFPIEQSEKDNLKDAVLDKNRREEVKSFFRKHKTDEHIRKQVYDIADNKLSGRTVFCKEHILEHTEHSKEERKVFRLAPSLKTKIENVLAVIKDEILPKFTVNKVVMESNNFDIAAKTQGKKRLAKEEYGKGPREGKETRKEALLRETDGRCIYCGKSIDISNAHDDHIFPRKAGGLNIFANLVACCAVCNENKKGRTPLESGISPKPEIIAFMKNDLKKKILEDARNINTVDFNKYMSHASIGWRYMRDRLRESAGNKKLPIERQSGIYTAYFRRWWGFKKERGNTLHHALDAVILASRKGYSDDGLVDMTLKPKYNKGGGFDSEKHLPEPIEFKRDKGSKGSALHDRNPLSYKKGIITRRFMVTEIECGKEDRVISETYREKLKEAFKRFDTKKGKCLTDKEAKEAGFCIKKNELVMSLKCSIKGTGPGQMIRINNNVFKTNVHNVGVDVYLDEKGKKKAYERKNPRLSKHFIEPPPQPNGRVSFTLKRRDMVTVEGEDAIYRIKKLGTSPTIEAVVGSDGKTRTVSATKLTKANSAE
Protocol: (§1) This Example describes indel assessment on mammalian targets using nuclease variants of Nuclease K comprising two or more substitutions identified as increasing indel activity in Example 8. 71 combination Nuclease K variants were tested.
(§2) Each Nuclease K variant and RNA guide (see Table 19) was cloned as described in Example 8. HEK293T cells were further transfected, followed by NGS analysis, as described in Example 8. For each target, indel ratios, referring to the percentage of NGS reads comprising indels, were calculated for the reference Nuclease K (SEQ ID NO: 65) and for each Nuclease K variant. The indel ratios shown in Table 20 were calculated as the average of two bioreplicates, each of which contained two technical replicates.

[1] = target: T2, Nuclease K D582R/I53R/T734R (D582R,I53R,T734R)
T2 chain: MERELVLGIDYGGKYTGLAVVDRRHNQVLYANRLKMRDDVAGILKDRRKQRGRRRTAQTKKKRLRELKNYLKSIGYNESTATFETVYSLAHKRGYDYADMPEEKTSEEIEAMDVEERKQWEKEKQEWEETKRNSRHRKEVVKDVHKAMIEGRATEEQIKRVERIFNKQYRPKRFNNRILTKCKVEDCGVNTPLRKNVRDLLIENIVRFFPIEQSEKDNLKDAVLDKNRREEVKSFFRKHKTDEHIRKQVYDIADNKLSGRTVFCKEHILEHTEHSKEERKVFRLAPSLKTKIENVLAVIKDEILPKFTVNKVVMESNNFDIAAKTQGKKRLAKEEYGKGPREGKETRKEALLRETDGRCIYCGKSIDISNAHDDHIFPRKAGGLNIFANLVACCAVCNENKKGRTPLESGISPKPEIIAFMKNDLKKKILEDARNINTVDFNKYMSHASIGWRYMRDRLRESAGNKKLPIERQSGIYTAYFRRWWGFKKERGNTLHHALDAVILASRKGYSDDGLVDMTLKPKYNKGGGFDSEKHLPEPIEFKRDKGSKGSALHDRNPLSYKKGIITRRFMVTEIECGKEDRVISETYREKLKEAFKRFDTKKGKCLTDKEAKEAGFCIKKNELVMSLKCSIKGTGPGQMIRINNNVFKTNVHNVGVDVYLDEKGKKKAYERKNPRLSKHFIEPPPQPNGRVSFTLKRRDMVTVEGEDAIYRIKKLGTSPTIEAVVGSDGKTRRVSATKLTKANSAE
Protocol: as §1, §2

Nuclease K D46R = target: T3, Nuclease K D46R (D46R)
T3 chain: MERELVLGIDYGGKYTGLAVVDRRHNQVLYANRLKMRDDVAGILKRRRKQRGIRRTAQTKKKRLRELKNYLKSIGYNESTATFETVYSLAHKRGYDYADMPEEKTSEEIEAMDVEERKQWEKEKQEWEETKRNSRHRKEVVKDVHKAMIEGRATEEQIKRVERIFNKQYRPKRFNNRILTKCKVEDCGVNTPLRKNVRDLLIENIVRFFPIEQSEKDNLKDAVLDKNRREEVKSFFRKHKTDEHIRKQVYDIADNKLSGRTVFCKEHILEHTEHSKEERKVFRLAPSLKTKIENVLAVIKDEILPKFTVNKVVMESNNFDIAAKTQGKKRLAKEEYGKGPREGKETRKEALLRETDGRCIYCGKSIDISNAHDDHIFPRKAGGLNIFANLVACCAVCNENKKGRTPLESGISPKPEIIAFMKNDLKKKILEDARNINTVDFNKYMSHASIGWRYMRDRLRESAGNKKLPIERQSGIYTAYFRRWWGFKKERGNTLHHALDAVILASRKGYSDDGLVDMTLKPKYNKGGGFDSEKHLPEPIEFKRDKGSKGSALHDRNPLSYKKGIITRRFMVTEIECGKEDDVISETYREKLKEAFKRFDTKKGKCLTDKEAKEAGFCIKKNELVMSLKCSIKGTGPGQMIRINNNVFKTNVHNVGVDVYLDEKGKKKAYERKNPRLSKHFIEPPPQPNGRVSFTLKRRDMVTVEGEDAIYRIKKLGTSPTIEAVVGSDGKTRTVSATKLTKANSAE

Binder | activity (Nuclease K D582R/G42R) [indel ratio] | activity [1] [indel ratio] | binding signal (Nuclease K D46R) [fold vs Nuclease K]
Nuclease K AAVS1-T3 guide ; AAVS1-T3 target (ssRNA ; dsDNA) RNA: UUGUGAGAAUGGUGCGUCCUGUUACAGUUAAGGCUCUGAAAAGAGCCUUAAUUGUAAAACGCCUAUACAGUGAAGGGAUAUACGCUUGGGUUUGUCCAGCCUGAGCCUCUAUGCCAGAAAUGGCGCCUUCAUCGUGGGUUAGGACAUUUAAAUUUAAAAACUAUUCAGCACUGUUUGCUCUUGUCAGCUUGGUGGCAGA DNA 1: TTGTGAGAATGGTGCGTCCT DNA 2: AGGACGCACCATTCTCACAA | 0.221 | 0.27 | 6.71
Nuclease K EMX1-T7 guide ; EMX1-T7 target (ssRNA ; dsDNA) RNA: CUUUAGCAAGGGACUAUUCAGUUACAGUUAAGGCUCUGAAAAGAGCCUUAAUUGUAAAACGCCUAUACAGUGAAGGGAUAUACGCUUGGGUUUGUCCAGCCUGAGCCUCUAUGCCAGAAAUGGCGCCUUCAUCGUGGGUUAGGACAUUUAAAUUUAAAAACUAUUCAGCACUGUUUGCUCUUGUCAGCUUGGUGGCAGA DNA 1: CTTTAGCAAGGGACTATTCA DNA 2: TGAATAGTCCCTTGCTAAAG | 0.231 | 0.25 | 9.86
